The results in this text go back to patent US6358732.

The data set has as its system CDF (CDE-binding factor). As to the kind of experiment: cell_activity. As to conditions: transient transfection NIH3T3, luciferase; indirect.

In turn, cdc25C promoter CDE-CHR region returned an activity (fold growing/G0) of 17.5.
